According to publication PMC8142884:

Target: S2H14 (variable region fused with the constant region of IgG1)
Assay: SPR

Substance: SARS-CoV-2 receptor binding domain (RBD), His-tagged (from UniProt P0DTC2 319-541) (domain or fragment)
- Kd: 4.12 nM
